In patent US20100129369A1 (Eli Lilly, published 2010):

Molecular target: T1, mouse c-Met ECD (mouse, UniProt P16056 25-931)
T1 construct: extracellular domain
Assay: ELISA, coated ECD (data not shown)

T1 sequence (P16056 25-931): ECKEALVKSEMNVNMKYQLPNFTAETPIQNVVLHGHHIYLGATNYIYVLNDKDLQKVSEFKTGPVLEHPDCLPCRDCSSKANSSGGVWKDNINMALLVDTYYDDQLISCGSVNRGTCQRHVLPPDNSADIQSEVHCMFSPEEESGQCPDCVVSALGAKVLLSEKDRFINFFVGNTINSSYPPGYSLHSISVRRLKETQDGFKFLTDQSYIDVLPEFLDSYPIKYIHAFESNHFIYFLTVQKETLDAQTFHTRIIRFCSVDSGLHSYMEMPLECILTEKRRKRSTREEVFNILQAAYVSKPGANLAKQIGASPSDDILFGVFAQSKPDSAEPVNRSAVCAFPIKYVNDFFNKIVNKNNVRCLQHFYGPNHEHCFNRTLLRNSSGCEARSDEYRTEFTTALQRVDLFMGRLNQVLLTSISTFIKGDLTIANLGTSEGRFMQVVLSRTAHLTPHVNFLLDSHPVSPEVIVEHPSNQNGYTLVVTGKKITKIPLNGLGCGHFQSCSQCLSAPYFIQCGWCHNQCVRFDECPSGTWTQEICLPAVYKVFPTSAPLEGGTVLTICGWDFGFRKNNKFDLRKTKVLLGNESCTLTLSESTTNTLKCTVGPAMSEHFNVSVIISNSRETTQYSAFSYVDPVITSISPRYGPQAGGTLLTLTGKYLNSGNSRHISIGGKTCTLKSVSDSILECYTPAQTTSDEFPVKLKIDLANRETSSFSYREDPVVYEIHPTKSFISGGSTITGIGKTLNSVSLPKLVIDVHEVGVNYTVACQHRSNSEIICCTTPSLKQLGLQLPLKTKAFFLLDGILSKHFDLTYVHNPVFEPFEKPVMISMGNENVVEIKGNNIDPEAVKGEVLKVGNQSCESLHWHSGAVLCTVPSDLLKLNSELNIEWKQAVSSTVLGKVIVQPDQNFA

- binding result: no binding (tested: 100 nM)
B1: C8-6 (antibody, human IgG2, kappa, V domains shown)
VH: QVQLVQSGAEVKKPGASVKVSCKASGYTFTDYYMHWVRQAPGQGLEWMGRVNPNRGGTTYNQKFEGRVTMTTDTSTSTAYMELRSLRSDDTAVYYCARTNWLDYWGQGTTVTVSS
VL: DIQMTQSPSSLSASVGDRVTITCSVSSSVSSIYLHWYQQKPGKAPKLLIYSTSNLASGVPSRFSGSGSGTDFTLTISSLQPEDFATYYCIQYSGYPLTFGGGTKVEIKR
notes: Called IgG4, kappa; also called Mab C8-6
